Consider five molecules from patent US20240254222A1 (Bayer, published 2024).

The target of assay [1] is T1, Human Semaphorin3A-Fc (R&D Systems), TPP-13211 (human).
T1 construct: R&D Systems 1250-S3; also called recombinant human Sema3A-Fc chimera
Put plainly: ELISA, coated Sema3A-Fc, antibody 0.00015-10 ug/ml. As to the method: For the assessment of binding selectivity to Sema3A vs Sema3G, 1 nM recombinant human Sema3A-Fc chimera (R&D Systems) or recombinant human GST—Sema3G (Abnova) were coated on Maxisorb plates, incubated with antibodies in a dose-response curve from 0.00015-10 μg/ml, and the binding of antibodies quantified using HRP coupled anti-human antiserum and chemiluminescent substrate.
(In general: An ELISA detects its analyte on a solid surface through an enzyme-linked reagent.)

Assay [2] concerns the target T2, Human Semaphorin3A-Sema Domain, TPP-19068 (human, UniProt Q14563 21-569).
T2 construct: produced inhouse in HEK293-6E; also called human monovalent Sema3A domain
T2 sequence: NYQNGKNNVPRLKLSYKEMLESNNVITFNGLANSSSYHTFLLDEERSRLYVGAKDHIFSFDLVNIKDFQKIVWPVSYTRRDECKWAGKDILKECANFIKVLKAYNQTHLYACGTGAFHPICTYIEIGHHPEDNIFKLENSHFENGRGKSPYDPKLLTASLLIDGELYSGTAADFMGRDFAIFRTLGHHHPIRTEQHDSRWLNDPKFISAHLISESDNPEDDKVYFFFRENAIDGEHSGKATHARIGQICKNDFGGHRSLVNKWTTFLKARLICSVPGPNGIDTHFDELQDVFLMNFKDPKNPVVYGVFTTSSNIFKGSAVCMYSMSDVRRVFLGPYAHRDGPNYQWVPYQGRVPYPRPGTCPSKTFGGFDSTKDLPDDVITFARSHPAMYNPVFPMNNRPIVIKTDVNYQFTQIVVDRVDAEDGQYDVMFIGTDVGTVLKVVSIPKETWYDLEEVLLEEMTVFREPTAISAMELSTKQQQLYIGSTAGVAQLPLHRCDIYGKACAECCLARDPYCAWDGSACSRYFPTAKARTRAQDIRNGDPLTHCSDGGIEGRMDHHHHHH
Put plainly: SPR, captured antibody, Sema3A domain analyte. Put shortly:
(§1)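 SPR on Biacore T200/8K+ at 25° C in HBS P+ with 300 mM NaCl, 0.75 mM CaCl₂, 2.5 mM MgCl₂, 1 mg/ml BSA; antibodies captured by anti-human Fc, or anti-human Fab for Fc-tagged analytes. Fc-Sema3A at 1.56-200 nM; monovalent Sema domains at […]-3.125 nM multi-cycle or 100 nM binding only. Double-referenced 1:1 Langmuir fit.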
A general note: In SPR one partner is held on a chip, and binding of the other changes the refractive index at the surface.

The target in assay [3] is T3, Mouse Semaphorin3A-Sema Domain, TPP-19069 (mouse, UniProt O08665 21-569).
T3 construct: produced inhouse
T3 sequence: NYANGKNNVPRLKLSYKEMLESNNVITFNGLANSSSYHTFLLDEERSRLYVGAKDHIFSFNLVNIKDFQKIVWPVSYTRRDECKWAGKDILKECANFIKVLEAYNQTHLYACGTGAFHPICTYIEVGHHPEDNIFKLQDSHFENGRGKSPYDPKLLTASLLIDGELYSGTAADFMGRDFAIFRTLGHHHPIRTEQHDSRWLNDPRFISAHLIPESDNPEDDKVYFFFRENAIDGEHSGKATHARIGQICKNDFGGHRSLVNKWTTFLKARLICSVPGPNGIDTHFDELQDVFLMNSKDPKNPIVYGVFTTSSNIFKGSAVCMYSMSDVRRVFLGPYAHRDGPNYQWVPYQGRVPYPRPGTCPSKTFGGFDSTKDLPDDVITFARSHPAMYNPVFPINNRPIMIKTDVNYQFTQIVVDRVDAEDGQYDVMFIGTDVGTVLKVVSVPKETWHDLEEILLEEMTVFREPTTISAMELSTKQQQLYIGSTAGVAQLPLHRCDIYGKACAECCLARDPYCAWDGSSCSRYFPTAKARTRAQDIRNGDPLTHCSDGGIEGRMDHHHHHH
Put plainly: SPR, captured antibody, Sema3A domain analyte. Put shortly: as §1

Assay [4] addresses T4, Cyno Semaphorin3A-Sema Domain, TPP-19122 (cynomolgus (Macaca fascicularis), UniProt Q63548 21-569 (rat entry), limits assumed).
T4 construct: produced inhouse
T4 chain: T3 sequence with A3Q, E102K, V126I, Q138E, D139N, S296F, V444I, I455V, V489I
The experiment in a line: SPR, captured antibody, Sema3A domain analyte. Put shortly: as §1

Residue numbers refer to the chain shown, from its start.

T1 sequence (chain, as listed by the source limits assumed): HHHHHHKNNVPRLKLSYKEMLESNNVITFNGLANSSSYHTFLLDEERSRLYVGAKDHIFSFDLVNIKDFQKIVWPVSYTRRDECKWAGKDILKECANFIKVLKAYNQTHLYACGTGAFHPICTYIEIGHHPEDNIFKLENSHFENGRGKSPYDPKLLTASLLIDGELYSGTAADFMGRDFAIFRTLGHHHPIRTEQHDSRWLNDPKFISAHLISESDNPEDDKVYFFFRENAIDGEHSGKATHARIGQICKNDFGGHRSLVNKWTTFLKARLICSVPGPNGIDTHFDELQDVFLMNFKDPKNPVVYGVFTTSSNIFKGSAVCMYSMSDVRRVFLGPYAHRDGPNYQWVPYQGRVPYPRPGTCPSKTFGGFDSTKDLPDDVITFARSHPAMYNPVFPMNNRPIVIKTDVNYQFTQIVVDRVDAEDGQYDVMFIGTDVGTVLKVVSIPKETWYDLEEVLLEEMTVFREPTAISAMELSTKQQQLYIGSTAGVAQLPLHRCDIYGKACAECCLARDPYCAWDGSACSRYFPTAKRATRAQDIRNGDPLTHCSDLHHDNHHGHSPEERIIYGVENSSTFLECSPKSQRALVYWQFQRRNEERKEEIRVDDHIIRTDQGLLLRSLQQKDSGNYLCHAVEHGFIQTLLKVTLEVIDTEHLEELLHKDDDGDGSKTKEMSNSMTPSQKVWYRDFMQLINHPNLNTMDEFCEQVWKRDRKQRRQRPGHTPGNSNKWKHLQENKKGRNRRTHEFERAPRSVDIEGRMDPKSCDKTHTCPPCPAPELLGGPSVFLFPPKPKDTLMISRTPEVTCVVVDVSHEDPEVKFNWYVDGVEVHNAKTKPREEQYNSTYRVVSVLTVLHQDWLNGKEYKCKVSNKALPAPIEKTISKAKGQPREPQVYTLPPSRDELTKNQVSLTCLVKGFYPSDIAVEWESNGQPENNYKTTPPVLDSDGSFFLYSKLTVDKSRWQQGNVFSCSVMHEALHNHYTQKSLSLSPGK

B1: TPP-30788 (antibody, human IgG1, kappa, V domains shown)
VH: EVQLVESGGGLVQPGGSLRLSCAASGFTFSSYYMSWVRQAPGKGLEWVSTIIKSGGYAYYPDSVKDRFTISRDNSKNTLYLQMSSLRAEDTAVYYCVRGGQGAMDYWGQGTTVTVSS
VL: EIVLTQSPATLSLSPGERATLSCRASQSIGDYLHWYQQKPGQAPRLLIKYASQSISGIPARFSGSGSGTDFTLTITSLEPEDFAVYYCQQGYSFPYTFGGGTKLEIKR
notes: prior art, WO 2020/225400; also called BI clone I; Böhringer (BI) Clone I
What is called EC50 is the concentration that produces a half-maximal response. A high value points to a less potent agent. One may read the Kd as the concentration at which binding is half-saturated. Low readings indicate tighter binding, high ones weaker binding. In the case of B1, in assay [1], the EC50 is 150 pM. Further, the values for the Kd in assay [2], in assay [3] and in assay [4] were 18 pM, 43 pM and 78 pM, respectively.

B2: TPP-30789 (antibody, human IgG1, kappa, V domains shown)
VH: B1 VH with T28P
VL: B1 VL
notes: prior art, WO 2020/225400; also called BI clone II; Böhringer (BI) Clone II
In the case of B2, in assay [1], the half-maximal effective concentration (EC50) was found to be 100 pM. Also, the Kd in assay [2] is 22 pM; in assay [3], 42 pM; in assay [4], 79 pM.

B3: TPP-30790 (antibody, human IgG1, kappa, V domains shown)
VH: B1 VH with P14L, S84N, R98K
VL: B1 VL with K49Y, T76S
notes: prior art, WO 2020/225400; also called BI clone III; Böhringer (BI) Clone III
For B3, it took 80 pM to reach a half-maximal effect in assay [1] (EC50). In addition, the Kd in assay [2] was 15 pM; in assay [3], 40 pM; in assay [4], 77 pM.

B4: TPP-30791 (antibody, human IgG1, kappa, V domains shown)
VH: B1 VH with V12L, P14L, Y80N, S84N, R98K
VL: B1 VL with T76S
notes: prior art, WO 2020/225400; also called BI clone IV; Böhringer (BI) Clone IV
For the molecule B4, in assay [1], the EC50 turned out to be 80 pM. Further, the Kd in assay [2] turned out to be 12 pM; in assay [3] it was 28 pM; in assay [4], 57 pM.

B5: TPP-23375 (antibody, human IgG4 S228P, lambda, V domains shown)
VH: EVQLLESGGGLVQPGGSLRLSCAASGFTFYSYAMSWVRQAPGKGLEWVSAIGYGGDTYYADSVKGRFTISRDNSKNTLYLQMNSLRAEDTAVYYCARRDDYTSRDAFDYWGQGTLVTVSS
VL: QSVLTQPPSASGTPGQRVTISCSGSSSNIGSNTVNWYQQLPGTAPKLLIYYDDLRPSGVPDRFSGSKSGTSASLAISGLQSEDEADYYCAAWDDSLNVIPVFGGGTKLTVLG
Molecule B5 came in with a half-maximal effective concentration (EC50) in assay [1] of 7700 pM. For the same molecule, the Kd in assay [2] amounted to 53 pM; in assay [3], 42 pM; in assay [4], 45 pM.
